This is an account of results in publication PMC8599795.

Where two headings read alike, the source gives them in different places.

Assay in all cases: SPR
Data set [1] has as its target T1, DEN2-NS1 (NAD2) (Dengue virus 2 Thailand/16681/84) (UniProt P29990).
T1 sequence: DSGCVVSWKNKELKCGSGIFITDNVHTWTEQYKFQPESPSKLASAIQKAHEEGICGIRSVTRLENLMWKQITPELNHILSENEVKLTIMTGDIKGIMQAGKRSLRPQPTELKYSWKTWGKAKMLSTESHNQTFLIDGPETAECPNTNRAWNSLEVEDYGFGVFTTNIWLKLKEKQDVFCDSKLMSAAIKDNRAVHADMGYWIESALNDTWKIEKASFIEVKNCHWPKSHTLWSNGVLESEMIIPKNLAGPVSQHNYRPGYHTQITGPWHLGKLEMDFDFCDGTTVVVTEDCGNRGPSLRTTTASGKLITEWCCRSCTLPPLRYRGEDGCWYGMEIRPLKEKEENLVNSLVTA
The conditions noted are these: N1,N2 = Ds.

Data set [2] addresses T2, DEN4-NS1 (NAD4) (Dengue virus 4 Dominica/814669/1981) (UniProt P09866).
T2 sequence: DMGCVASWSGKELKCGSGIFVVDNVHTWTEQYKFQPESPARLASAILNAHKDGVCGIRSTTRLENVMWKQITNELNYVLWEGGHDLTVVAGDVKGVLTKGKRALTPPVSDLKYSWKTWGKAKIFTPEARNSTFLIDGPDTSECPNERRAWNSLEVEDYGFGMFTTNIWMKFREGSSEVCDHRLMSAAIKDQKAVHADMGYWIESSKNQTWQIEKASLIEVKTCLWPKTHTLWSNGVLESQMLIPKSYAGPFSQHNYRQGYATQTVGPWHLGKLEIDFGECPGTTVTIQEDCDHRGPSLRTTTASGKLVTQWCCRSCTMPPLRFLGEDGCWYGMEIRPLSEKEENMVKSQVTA

For data set [3], the target named is T3, DEN3-NS1 (NAD3) (Dengue virus 3 Sri Lanka D3/H/IMTSSA-SRI/2000/1266) (UniProt Q6YMS4).
T3 sequence: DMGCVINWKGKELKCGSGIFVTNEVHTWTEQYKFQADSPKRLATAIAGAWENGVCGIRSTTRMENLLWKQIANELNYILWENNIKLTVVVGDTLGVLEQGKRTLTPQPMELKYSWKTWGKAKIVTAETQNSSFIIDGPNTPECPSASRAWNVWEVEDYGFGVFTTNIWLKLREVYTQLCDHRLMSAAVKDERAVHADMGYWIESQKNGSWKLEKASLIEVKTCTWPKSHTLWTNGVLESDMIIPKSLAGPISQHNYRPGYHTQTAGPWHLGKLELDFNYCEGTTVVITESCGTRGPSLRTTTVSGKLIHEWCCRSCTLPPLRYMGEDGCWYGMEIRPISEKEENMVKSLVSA

The sequence “TTTTCGCACTCCATGATATGGTCTACTGGTCCGNCTGGGAACAAGNGGCGGGAGGGANGGGTGTGGGTGCGACAAGCGGAGTAGTTAGACCGTCAAA [D2-1y-96]” had a dissociation constant (Kd) in data set [1] (N3 = diol-Px) of 0.041 nM.

The sequence “CGGCGGAGACGTAACGCNTATCAAATCNAAACAGCTTAGGGTCCGCCGCGCGTAGCG [D4-3-57h (AptD4)]” displayed a Kd in data set [2] (N = Ds) of 0.03 nM.

Consider “TTTTCGCACTCCATGATATGGTCTACTGGTCCGNCTGGGAACAAGNGGCGGGAGGGANGGGTGTGGGTGCGACAAGCGGAGTAGTTAGACCGTCAAA [D2-1d-97]”, for which the Kd in data set [1] (N3 = diol-Pa) was 0.114 nM.

On to “GGCTGGTCCGNCTGGGAACAAGNGGCGGGAGGGANGGGTGTGGGTGCGACAAGCGGACCAGCCCGCGTAGCG [D2-1d-72h (AptD2)]”, for which, in data set [1] (N3 = diol-Pa), the Kd came out at 0.104 nM.

In data set [1] (N3 = diol-Pa), “GACGGTCTACTGGTCCGNCTGGGAACAAGNGGCGGGAGGGANGGGTGTGGGTGCGACAAGCGGAGTAGTTAGACCGTCCGCGTAGCG [D2-1d-87h]” gave a Kd of 0.105 nM.

Consider “CCGCTTGTCATCTANCCTGGCCNTGTGGTACTGTAACGGCTGACAAGCGGCGCGTAGCG [D3-2-59h (AptD3)]”, for which, in data set [3] (N = Ds), the Kd came to 0.057 nM.

As for “TGATATGGTCTACTGAAGTGTTGTCATCTANCCTGGCCNTGTGGTACTGTAACGGCTGACAAGCGGAGTAGTTAGACC [D3-2-78]”, in data set [3] (N = Ds), the equilibrium dissociation constant (Kd) was 0.041 nM.

The sequence “CCGCTTGTCATCTAACCTGGCCATGTGGTACTGTAACGGCTGACAAGCGGCGCGTAGCG [Cont-D3-2-59h]” showed a Kd in data set [3] of 190 nM.

“TGATATGGTCTACTGGAGGAGACGTAACGCNTATCAAATCNAAACAGCTTAGGGTCCGACAAGCGGAGTAGTTAGACC [D4-3-78]” displayed a Kd in data set [2] (N = Ds) of 0.034 nM.

The sequence “CGGCGGAGACGTAACGCATATCAAATCAAAACAGCTTAGGGTCCGCCGCGCGTAGCG [Cont-D4-3-57h]” returned a Kd in data set [2] of 2 nM.

The sequence “CTCCGCTGTCAAACGGNTATCACGGCNACACACCTGCGGACAGCGGAGCGCGTAGCG [D4-1-57h]” came in with a dissociation constant (Kd) in data set [2] (N = Ds) of 0.029 nM.

Regarding “TGATATGGTCTACTGGTCTCAACGGTTGTCAAACGGNTATCACGGCNACACACCTGCGGACAAGCGGAGTAGTTAGACC [D4-1-78]”, the dissociation constant Kd in data set [2] (N = Ds) turned out to be 0.042 nM.
